Test results taken from patent US20230107034A1.
Like-named read-outs stand apart in the source and are kept apart here.

Tests used:
Assay in all cases: SPR
monomer = monomer (UniProt P05067)
PFs (AB 1-42 proto) = PFs (AB 1-42 proto) (UniProt P05067)
Ab 1-42 [1] = biological target: Ab 1-42 (UniProt P05067)
Ab 1-42 [2] = biological target: Ab 1-42 (UniProt P05067); remark: listed apart in the source

Ab 1-42, sequence (P05067 672-713): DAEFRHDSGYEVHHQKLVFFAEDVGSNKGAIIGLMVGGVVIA
monomer, sequence (P05067 672-713): as above
PFs (AB 1-42 proto), sequence (P05067 672-713): as above

| koff (monomer) [s⁻¹] | koff (PFs (AB 1-42 proto)) [s⁻¹] | koff (Ab 1-42 [1]) [s⁻¹] | koff (Ab 1-42 [2]) [s⁻¹] | Substance |
| --- | --- | --- | --- | --- |
| 0.718 | 0.000144 |  |  | Aducanumab |
|  |  | 0.000505 | 0.000426 | BAPI |
